# From PMC5441850, “Waxy and non-waxy barley cultivars exhibit differences in the targeting and catalytic activity of GBSS1a” (Journal of Experimental Botany, 2017)
# Numbering of substitutions follows the chain as printed. Numbers in names are those of the source.
# B1: HvGBSSIa (Hordeum vulgare; D287V/I559V/M558V) (protein)
# chain: SATGSGMNLVFVGAEMAPWSKTGGLGDVLGGLPPAMAANGHRVMVVSPRYDQYKDAWDTSVISEIKVADEYERVRFFHCYKRGVDRVFIDHPWFLEKVRGKTKEKIYGPDAGTDYEDNQQRFSLLCQAALEAPRILNLNNNPYFSGPYGEDVVFVCNDWHTGLLACYLKSNYQSNGIYRTAKVAFCIHNISYQGRFSFDDFAQLNLPDRFKSSFDFIVGYDKPVEGRKINWMKAGILQADKVLTVSPYYAEELISGEARGCELDNIMRLTGITGIVNGMDVSEWDPTKDKFLAVNYDITTALEAKALNKEALQAEVGLPVDRKVPLVAFIGRLEEQKGPDVMIAAIPEILKEEDVQIILLGTGKKKFEKLLKSMEEKFPGKVRAVVRFNAPLAHQMMAGADLLAVTSRFEPCGLIQLQGMRYGTPCVCASTGGLVDTIVEGKTGFHMGRLSVDCNVVEPADVKKVATTLKRAVKVVGTPAYQEMVKNCVVQDLSWKGPAKNWEDVLLELGVEGSEPGIVGEEIAPLAMENVAAP
# notes: initial 69 residues (plastid transit peptide) removed; codon-optimized, pET28a 6xHis tag; E. coli Tuner(DE3); HisTrap and Superdex75; mature size 59 kDa; CDC Alamo allele entry AF486519
# B2: HvGBSSIa (Hordeum vulgare) (protein)
# chain: B1 chain with V218D, V489M, V490I
# notes: as for B1
# B3: HvGBSSIa (Hordeum vulgare; D287V) (protein)
# chain: B1 chain with V489M, V490I
# notes: as for B1
# B4: HvGBSSIa (Hordeum vulgare; M558V) (protein)
# chain: B1 chain with V218D, V490I
# notes: as for B1
# B5: HvGBSSIa (Hordeum vulgare; I559V) (protein)
# chain: B1 chain with V218D, V489M
# notes: as for B1
# B6: HvGBSSIa (Hordeum vulgare; I559V/M558V) (protein)
# chain: B1 chain with V218D
# notes: as for B1
# Substrate: Nc1ncnc2c1ncn2[C@@H]1O[C@H](COP(=O)(O)OP(=O)(O)O[C@H]2O[C@H](CO)[C@@H](O)[C@H](O)[C@H]2O)[C@@H](O)[C@H]1O
# Assay: purified protein
# Assay type: biochemical, Hordeum vulgare
# Conditions: rabbit liver glycogen 1 mg/ml as acceptor, 50 mM Bicine pH 8.5, 25 mM potassium acetate, 2 mM MgCl2, 10 mM DTT, 37 °C
Protein,Km,kcat
B1,51 ± 10 µM,0.00933 ± 0.0005 s⁻¹
B2,160 ± 15 µM,0.0967 ± 0.0033 s⁻¹
B3,127 ± 9 µM,0.046 ± 0.001 s⁻¹
B4,71 ± 7 µM,0.353 ± 0.01 s⁻¹
B5,114 ± 15 µM,0.112 ± 0.005 s⁻¹
B6,56 ± 8 µM,0.0157 ± 0.00067 s⁻¹
